Patent US11198713B2, “Agents modulating beta-catenin functions and methods thereof” (FOG PHARMACEUTICALS, INC., priority 2017, dated 2021)
Numbered stars: 1 amine (or outer) side, 2 acyl side, 3 side chain; on linkers, the order of the positions; unused ones are H or OH. Bridge positions count the residues as written; N and C are the ends. Square brackets hold non-standard residues; d marks the D form. Primed or numbered codes have the meaning given here. Peptide text beside a SMILES is read from it. * marks the point of attachment. MB = Monomer B = PyrS, Alloc-pyrrolidine stapling residue (allyl carbamate on pyrrolidine N); MB(12) = Monomer B (PyrS), pyrrolidine stapling residue with N-allyl carbamate; MC(3) = Monomer C (PyrR), pyrrolidine stapling residue with N-allyl carbamate; MI = Monomer I = ReN, acyclic amine-bearing olefin stapling residue; MD = Monomer D = SgN, acyclic Alloc-amine olefin stapling residue; R6 = (R)-2-(5-hexenyl)alanine, C=CCCCC[C@@](C)(N[*:1])C(=O)[*:2]; S6 = (S)-2-(5-hexenyl)alanine, C=CCCCC[C@](C)(N[*:1])C(=O)[*:2]; MG = Monomer G = RdN, acyclic alkyl-N(Alloc) stapling residue; MC = Monomer C = PyrR, Alloc-pyrrolidine stapling residue; MA = Monomer A (Az), N-Alloc azetidine stapling residue; S7 = C[C@@](CCCCCC=[*:3])(N[*:1])C(=O)[*:2]; R8 = C=CCCCCCC[C@@](C)(N)C(=O)O; S8 = C=CCCCCCC[C@](C)(N)C(=O)O; R5 = C=CCCC[C@@](C)(N)C(=O)O; MB(7) = not defined here; Nle = CCCC[C@H](N)C(=O)O; Hex = hexyl, CCCCCC*; Octyl = CCCCCCCC*; βAla = NCCC(=O)O

T1: full-length beta-catenin (UniProt P35222 2-781, limits assumed)
T1 construct: mature; also called full-length ß-Catenin; β-catenin
T1 sequence (looked up): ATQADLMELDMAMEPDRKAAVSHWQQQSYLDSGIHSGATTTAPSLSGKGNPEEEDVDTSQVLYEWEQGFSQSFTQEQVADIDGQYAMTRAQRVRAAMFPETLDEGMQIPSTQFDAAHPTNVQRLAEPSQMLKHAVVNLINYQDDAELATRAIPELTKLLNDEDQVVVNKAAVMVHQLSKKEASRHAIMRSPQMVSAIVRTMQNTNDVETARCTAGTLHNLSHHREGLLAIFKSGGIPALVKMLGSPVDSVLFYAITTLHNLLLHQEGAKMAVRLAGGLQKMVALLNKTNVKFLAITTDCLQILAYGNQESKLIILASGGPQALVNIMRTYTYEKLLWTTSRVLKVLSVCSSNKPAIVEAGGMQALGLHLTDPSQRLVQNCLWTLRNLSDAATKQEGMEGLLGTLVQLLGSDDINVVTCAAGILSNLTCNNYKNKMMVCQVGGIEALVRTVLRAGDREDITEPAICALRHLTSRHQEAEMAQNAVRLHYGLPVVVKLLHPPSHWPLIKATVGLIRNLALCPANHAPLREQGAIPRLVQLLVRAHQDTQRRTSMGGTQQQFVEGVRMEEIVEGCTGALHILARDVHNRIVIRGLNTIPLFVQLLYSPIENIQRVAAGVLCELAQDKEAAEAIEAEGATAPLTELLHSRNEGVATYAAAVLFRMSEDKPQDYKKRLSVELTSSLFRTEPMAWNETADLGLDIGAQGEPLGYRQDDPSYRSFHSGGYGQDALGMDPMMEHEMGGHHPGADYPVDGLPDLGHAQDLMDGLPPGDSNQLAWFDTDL

T2: biotinylated beta-catenin (UniProt P35222 134-665, limits assumed, biotinylated (site not stated))
T2 construct: also called beta-catenin (SPR); armadillo domain of β-catenin
T2 sequence (looked up): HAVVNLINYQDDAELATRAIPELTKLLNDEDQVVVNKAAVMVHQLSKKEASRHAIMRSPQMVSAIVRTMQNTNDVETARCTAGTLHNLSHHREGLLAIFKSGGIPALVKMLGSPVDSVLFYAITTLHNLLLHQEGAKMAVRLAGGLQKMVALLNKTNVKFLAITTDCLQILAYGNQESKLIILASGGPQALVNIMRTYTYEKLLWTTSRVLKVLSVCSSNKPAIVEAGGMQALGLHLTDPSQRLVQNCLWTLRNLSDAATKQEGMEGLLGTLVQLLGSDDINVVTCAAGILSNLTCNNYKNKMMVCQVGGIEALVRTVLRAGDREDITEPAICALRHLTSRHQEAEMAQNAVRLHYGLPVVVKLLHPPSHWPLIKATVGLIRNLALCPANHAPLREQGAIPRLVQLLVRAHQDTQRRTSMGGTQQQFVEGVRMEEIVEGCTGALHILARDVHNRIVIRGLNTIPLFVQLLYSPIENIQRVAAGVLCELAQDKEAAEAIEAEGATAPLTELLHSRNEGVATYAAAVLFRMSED

B1: FP0763a (peptide)
peptide: Ac-PQ[S7]ILD[MB(7)]HVRRVWR-NH2
modifications: staple 3-7; reading uncertain; also: amino staple: CO2 extruded from carbamate staple with Pd(PPh3)4
notes: also called FP-0763 (amino staple)
B2: FP0767a (peptide)
peptide: Ac-PQ[R6]ILD[MC]HVRRVWR-NH2
modifications: staple 3-7; also: amino staple (-N(R')-), from carbamate staple by metathesis then Pd(0) CO2 extrusion
notes: also called FP-0767 (amino staple)
B3: FP0736a (peptide)
peptide: Ac-PQ[S6]ILD[MA]HVRRVWR-NH2
modifications: staple 3-7; also: amino staple: CO2 extruded from carbamate staple with Pd(PPh3)4
notes: also called FP-0736 (amino staple)
B4: FP0745a (peptide)
peptide: Ac-PQ[MC]ILD[R6]HVRRVWR-NH2
modifications: staple 3-7; also: amino staple: CO2 extruded from carbamate staple with Pd(PPh3)4
notes: also called FP-0745 (amino staple); PR/R6
B5: FP0738a (peptide)
peptide: Ac-PQ[S7]ILD[MA]HVRRVWR-NH2
modifications: staple 3-7; also: amino staple: CO2 extruded from carbamate staple with Pd(PPh3)4
notes: also called FP-0738 (amino staple); S7/Az
B6: FP0777a (peptide)
peptide: Ac-PQ[R5]ILD[MI]HVRRVWR-NH2
modifications: staple 3-7; also: amino staple (-N(R')-), from carbamate staple by metathesis then Pd(0) CO2 extrusion
notes: also called FP-0777 (amino staple)
B7: FP0783a (peptide)
peptide: Ac-PQ[MI]ILD[R5]HVRRVWR-NH2
modifications: staple 3-7; also: amino staple (-N(R')-), from carbamate staple by metathesis then Pd(0) CO2 extrusion
notes: also called FP-0783 (amino staple)
B8: FP0776a (peptide)
peptide: Ac-PQ[R5]ILD[MG]HVRRVWR-NH2
modifications: staple 3-7; also: amino staple (-N(R')-), from carbamate staple by metathesis then Pd(0) CO2 extrusion
notes: also called FP-0776 (amino staple)

Key:
[1] = system: TCF/LEF Luciferase reporter HEK293 cell lines; experiment: TCF/LEF reporter assay; assay type: cell-based; conditions: Table 2
Experimental: FIG. 2. […] FIG. 2 depicts exemplary data from TCF/LEF reporter assays. Y-axes illustrate luminescence, and X-axes illustrate concentrations of peptides. […] TCF/LEF Luciferase reporter HEK293 cell lines (BPS Bioscience) were treated with dilution series of FP0025c and FP00217c Isomer 2 for 18 hours. 300 ng/mL of Wnt3a (Peprotech) was added to the cells for the final 6 hours of incubation. Luciferase activity was measured using Bright-Glo Luciferase Assay (Promega) according to manufacturer's protocol.
In some embodiments, a provided assay is a TCF/LEF reporter assay. In some embodiments, in an exemplary such assay, TCF/LEF Luciferase reporter HEK293 cell lines (BPS Bioscience) were treated with dilution series of provided peptides for 18 hours. 300 ng/mL of Wnt3a (Peprotech) was added to the cells for the final 6 hours of incubation. Luciferase activity was measured using Bright-Glo Luciferase Assay (Promega) according to manufacturer's protocol. […] Applicant also notes that teachings of the present disclosure are not restricted to a particular mechanism of action of described agents.

full-length beta-catenin [2] = molecular target: T1, full-length beta-catenin; experiment: competition FP; amino staple (cyclic)
Experimental: (§1) In some embodiments, a competition fluorescence polarization assay is used to assess binding of provided compounds to beta-catenin. In an exemplary procedure, solutions of provided compounds, e.g., provided stapled peptides, were prepared in a buffer (e.g., 50 mM Tris pH 8.0, 250 mM NaCl, 2% glycerol, 0.5 mM EDTA, 0.02% w/v sodium azide) using a 3-fold serial dilution from 5 µM. Probe solution (15 nM full-length ß-Catenin, 20 nM FITC labeled peptide in buffer) was prepared and incubated for a period of time, e.g., 5 minutes, and the a volume, e.g., 40 µL per well plated in suitable plate, e.g., a black polystyrene 384-well plate (Corning). Equal volume of the serial diluted peptide was added to the plate and incubated protected from light for 15 minutes prior to read. Reads were performed on a Spectramax M5 (Molecular Devices) in duplicate. Suitable probe was FITC-PEG1-PQ-S5-ILD-S5-HVRRVWR (SEQ ID NO: 1) (hydrocarbon staple formed by two S5 via olefin metathesis) and/or FITC-bA-PQ-S5-ILD-S5-HVRRVWR (SEQ ID NO: 3) (hydrocarbon staple formed by two S5 via olefin metathesis). […] Another peptide, FPO217c (Ac-AR_8ILDAHIM$B5$RVW (SEQ ID NO: 280), with N-terminal proline removed and valine replaced with isoleucine compared to FP0025c) was prepared.

full-length beta-catenin [3] = molecular target: T1, full-length beta-catenin; experiment: competition FP, grade of FP EC50 (+: 500-5000 nM)
Method in brief: (§2)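 Compound 3-fold serially diluted from 5 µM in Tris pH 8.0, 250 mM NaCl buffer, added to premixed 15 nM full-length β-catenin and 20 nM FITC-labelled stapled axin-site peptide probe. Incubated 15 min in the dark, polarization read in duplicate.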

full-length beta-catenin [4] = molecular target: T1, full-length beta-catenin; experiment: competition FP, grade of FP EC50 (++: 100-500 nM)
Method in brief: as §2

full-length beta-catenin [5] = molecular target: T1, full-length beta-catenin; experiment: competition FP; amino staple (acyclic)
Experimental: as §1

[6] = molecular target: T2, biotinylated beta-catenin; experiment: SPR (Biacore, biotinylated beta-catenin)
Experimental: (§3) Additionally or alternatively, binding to beta-catenin may be measured by Surface Plasmon Resonance. In an exemplary assay, approximately 6 nmol dried peptide diluted in buffer (50 mM Tris pH 8.0, 300 mM NaCl, 2% glycerol, 0.5 mM TCEP, 0.5 mM EDTA, 0.005% Tween-20, 1 mg/mL CM Dextran, 0.02% w/v sodium azide) was assayed on a Biacore X100 using the Biacore Biotin CAPture Kit (GE Healthcare) and biotinylated beta-catenin. Results were analyzed using the Biacore X100 Evaluation Software.

full-length beta-catenin [7] = molecular target: T1, full-length beta-catenin; experiment: competition FP, grade of FP EC50 (+++: <=100 nM)
Method in brief: as §2

[8] = molecular target: T2, biotinylated beta-catenin; experiment: Table 3 'Binding Kd (nM)'; method not stated there (SPR in Example 2)
Experimental: as §3

Row | Molecule | TCF/LEF Reporter Inhibition at 10 μM [1] [%] | EC50 (full-length beta-catenin [2]) [nM] | FP EC50 (full-length beta-catenin [3]) [nM] | also measured
1 | 0ct-P-A-R8-I-L-D-A-H-V-MB-R-V-W-1NH2 (Octyl-PA[R8]ILDAHV[MB(12)]RVW-NH2; staple 3-10) [FP0324c] | 51 |  |  | 
2 | CC[C@H](C)[C@H](NC(=O)[C@H](CO)NC(=O)[C@H](C)NC(=O)[C@@H]1CCCN1C(C)=O)C(=O)N[C@@H](CC(C)C)C(=O)N[C@@H](CC(=O)O)C(=O)N[C@@H](C)C(=O)N[C@@H](Cc1c[nH]cn1)C(=O)N[C@H](C(=O)N[C@@H](CCC(N)=O)C(=O)N[C@@H](CCCNC(=N)N)C(=O)N[C@H](C(=O)N[C@@H](Cc1c[nH]c2ccccc12)C(N)=O)C(C)C)C(C)C [FP0098, Ac-P-A-S-I-L-D-A-H-V-Q-R-V-W-NH2] (Ac-PASILDAHVQRVW-NH2) | 18 |  |  | 
3 | CCCC[C@H](NC(=O)[C@@H](NC(=O)[C@H](CCCNC(=N)N)NC(=O)[C@H](CCC(N)=O)NC(=O)[C@@H](NC(=O)[C@H](Cc1c[nH]cn1)NC(=O)[C@H](CCC(=O)O)NC(=O)[C@H](CC(=O)O)NC(=O)[C@H](CC(C)C)NC(=O)[C@@H](NC(=O)[C@H](CO)NC(=O)[C@H](CCC(=O)O)NC(=O)[C@@H]1CCCN1C(C)=O)[C@@H](C)CC)C(C)C)C(C)C)C(=O)N[C@@H](CCCCN)C(N)=O [FP0110, Ac-P-E-S-I-L-D-E-H-V-Q-R-V-nL-K-NH2] (Ac-PESILDEHVQRV[Nle]K-NH2) | 19 |  |  | 
4 | Ac-P-A-MC-I-L-D-A-H-V-S8-R-V-W-NH2 (Ac-PA[MC(3)]ILDAHV[S8]RVW-NH2; staple 3-10) [FP0099] | 38 |  |  | 
5 | Hex-P-A-R8-I-L-D-A-H-V-MB-R-V-W-NH2 (Hex-PA[R8]ILDAHV[MB(12)]RVW-NH2; staple 3-10) [FP0325c] | 73 |  |  | 
6 | B1 |  | 1110 | 500 to 5000 | 
7 | B2 |  | 700 | 500 to 5000 | 
8 | B3 |  | 470 |  | FP EC50 (full-length beta-catenin [4]): 100 to 500 nM
9 | B4 |  | 210 |  | FP EC50 (full-length beta-catenin [4]): 100 to 500 nM
10 | B5 |  | 200 |  | FP EC50 (full-length beta-catenin [4]): 100 to 500 nM
11 | B6 |  |  | 500 to 5000 | EC50 (full-length beta-catenin [5]): 4750 nM
12 | H-[βAla]A[R8]ILDAHI[MB]RVW-NH2 (staple 3-10) [FP0217c_bAfree] |  |  |  | Kd [6]: 9 nM; FP EC50 (full-length beta-catenin [7]): ≤ 100 nM
13 | Ac-A[R8]ILDAHI[MD]RVW-NH2 (staple 2-9) [FP0338c] |  |  |  | FP EC50 (full-length beta-catenin [4]): 100 to 500 nM; Kd [8]: 10 nM
14 | B7 |  |  | 500 to 5000 | EC50 (full-length beta-catenin [5]): 1400 nM
15 | AXILDAHIXRVW (not fully specified; Ac-A-R4-I-L-D-A-H-I-MH-R-V-W-NH2; carbamate staple R4/MH) [FP0509c] |  |  |  | Kd [6]: 3 nM; FP EC50 (full-length beta-catenin [7]): ≤ 100 nM; Kd [8]: 3 nM
16 | B8 |  |  | 500 to 5000 | EC50 (full-length beta-catenin [5]): 580 nM
